Assay [1] addresses T1, R &D hRGMc-His (human, UniProt Q6ZVN8 36-400).
T1 construct: Bought (R&D) His-tagged human RGMc; also called human RGMc; not shown: His tag
T1 sequence: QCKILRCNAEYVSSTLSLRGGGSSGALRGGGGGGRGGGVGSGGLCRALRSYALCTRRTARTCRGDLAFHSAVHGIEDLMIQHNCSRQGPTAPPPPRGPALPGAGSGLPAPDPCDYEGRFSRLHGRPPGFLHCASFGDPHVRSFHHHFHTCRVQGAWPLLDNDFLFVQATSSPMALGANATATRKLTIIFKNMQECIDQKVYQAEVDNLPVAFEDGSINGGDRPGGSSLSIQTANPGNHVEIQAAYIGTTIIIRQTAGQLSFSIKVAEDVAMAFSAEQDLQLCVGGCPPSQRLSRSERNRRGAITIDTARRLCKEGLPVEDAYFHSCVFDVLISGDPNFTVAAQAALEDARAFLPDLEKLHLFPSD
The assay can be described thus: BIAcore; Ab captured on CM5 chip via anti-hIgG Fc Ab, antigen injected; 1:1 Langmuir fit.

The target of assay [2] is T2, hRGMa-His (human, UniProt Q96B86 48-422, limits assumed).
T2 construct: not shown: His tag
T2 sequence: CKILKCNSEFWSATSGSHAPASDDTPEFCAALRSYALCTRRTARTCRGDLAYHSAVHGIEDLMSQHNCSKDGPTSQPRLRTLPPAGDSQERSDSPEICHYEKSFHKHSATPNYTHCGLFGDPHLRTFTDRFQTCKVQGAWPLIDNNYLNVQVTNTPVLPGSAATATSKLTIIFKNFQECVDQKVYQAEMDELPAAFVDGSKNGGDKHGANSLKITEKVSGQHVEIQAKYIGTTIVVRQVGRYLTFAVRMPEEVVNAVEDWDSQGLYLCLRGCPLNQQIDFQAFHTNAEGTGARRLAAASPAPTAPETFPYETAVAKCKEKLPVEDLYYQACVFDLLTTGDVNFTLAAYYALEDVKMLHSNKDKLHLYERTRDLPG
The description is as above.

The target of assay [3] is Rat RGMa-His (rat) (UniProt D4A188). The assay can be described thus: affinity KD as listed in Table 4 (equals BIAcore value of Table 5). In general terms: Surface plasmon resonance follows binding to a sensor surface in real time, without labels.
For assay [4], the target named is T2, hRGMa-His. Described as above.
For assay [5], the target named is T1, R &D hRGMc-His. The experiment in a line: affinity KD as listed in Table 4; method not given.
Assay [6] has as its target Rat RGMa-His (rat) (UniProt D4A188). The experiment in a line: BIAcore; Ab captured on CM5 chip via anti-hIgG Fc Ab, antigen injected; 1:1 Langmuir fit.
Assay [7] concerns the target T3, hRGMc expressed in 293HEK cells (human, UniProt Q6ZVN8 36-400).
T3 sequence: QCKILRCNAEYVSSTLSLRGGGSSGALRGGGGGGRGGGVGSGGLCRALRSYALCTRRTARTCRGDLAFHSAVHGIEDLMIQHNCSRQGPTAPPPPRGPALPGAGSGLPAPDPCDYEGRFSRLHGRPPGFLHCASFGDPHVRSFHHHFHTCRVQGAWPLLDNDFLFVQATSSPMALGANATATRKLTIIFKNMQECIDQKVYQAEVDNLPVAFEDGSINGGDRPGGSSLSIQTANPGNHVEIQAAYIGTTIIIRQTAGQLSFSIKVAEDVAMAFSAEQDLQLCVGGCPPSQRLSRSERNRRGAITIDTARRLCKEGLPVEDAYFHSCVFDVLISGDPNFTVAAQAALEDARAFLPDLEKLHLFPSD
The experiment in a line: cell-based or functional assay.

Some results are limits rather than exact numbers.

B1: h5F9.AM4 (antibody, V domains shown)
VH: EVQLVESGGGLVQPGGSLRLSCAASGFTFSNYGMNWIRQAPGKGLEWIGMIYYDSSEKHYADSVKGRFTISRDNSKNTLYLQMNSLRAEDTAVYYCAKGTTPDYWGQGTMVTVSS
VL: DVVLTQSPLSLPVTLGQPASISCRSSQSLESSDGDTFLEWFQQRPGQSPRLLIYDVSTRFSGVPDRFSGSGSGTDFTLKISRVEAEDVGVYYCFQVTHDPVTFGQGTKLEIK
notes: also called RGMA-h5F9AM.4; RGMA-h5F9Vh7a/pJP29 1 hIgG1/K mut
Broadly, the Kd is a measure of binding affinity in units of concentration. High values mean lower affinity, low ones higher affinity. Broadly, the koff is the rate constant with which the complex falls apart. A low value points to a long-lived complex. The kon is the rate constant with which the complex forms. Turning to B1, the Kd is 0.13 nM with R &D hRGMc-His [1]; 0.015 nM in the assay with hRGMa-His [2]; < 0.00094 nM with Rat RGMa-His (rat) [3]; 0.015 nM with hRGMa-His [4]; 0.12 nM in the assay with R &D hRGMc-His [5]; < 0.00094 nM in the assay with Rat RGMa-His (rat) [6]. The koff is 0.00104 s⁻¹ in the assay with R &D hRGMc-His [1], 2.2e-05 s⁻¹ with hRGMa-His [2] and < 1e-06 s⁻¹ with Rat RGMa-His (rat) [6]. Further, the kon in the assay with R &D hRGMc-His [1] was 7.85e+06 M⁻¹ s⁻¹; with hRGMa-His [2] it was 1.4e+06 M⁻¹ s⁻¹; with Rat RGMa-His (rat) [6], 1.1e+06 M⁻¹ s⁻¹.

B2: humanized antibody 5F9.23 (antibody, V domains shown)
VH: EVQLVESGGGLVQPGGSLRLSCAASGFTFSNYGMNWIRQAPGKGLEWIGMIYYDSSEKHYADSVKGRFTISRDNSKNTLYLQMNSLRAEDTAVYYCAKGTTPDYWGQGTMVTVSS
VL: DVVLTQSPLSLPVTLGQPASISCRSSQSLEYSDGYTFLEWFQQRPGQSPRLLIYEVSNRFSGVPDRFSGSGSGTDFTLKISRVEAEDVGVYYCFQATHDPLTFGQGTKLEIKR
notes: Humanized parental antibody; also called h5F9.23; H5F9.23*
Turning to B2, in the assay with R &D hRGMc-His [1], binding was put at a Kd of 29 nM and the kon was 830000 M⁻¹ s⁻¹. For the same molecule, the “IC50, RGMc-mediated BMP reporter (BRE-luc) assay” value in assay [7] was 17 nM. Moreover, in the assay with Rat RGMa-His (rat) [6], the Kd was 2.1 nM, the koff was 0.0017 s⁻¹ and the kon was 830000 M⁻¹ s⁻¹.

B3: h5F9.AM9 (antibody, V domains shown)
VH: EVQLVESGGGVVQPGRSLRLSCAASGFTFSNYGMNWVRQAPGKGLEWVAMIYYDSSEKHYADSVKGRFTISRDNSKNTLYLQMNSLRAEDTAVYYCARGTTPDYWGQGTMVTVSS
VL: DVVLTQSPLSLPVTLGQPASISCRSSQSLADSDGDTFLHWFQQRPGQSPRLLIYAVSHRFSGVPDRFSGSGSGTDFTLKISRVEAEDVGVYYCFQATHDPVTFGQGTKLEIK
notes: also called RGMA-h5F9AM.9; RGMA-h5F9pJP297/pJP 299 hIgG1/K mut
For the molecule B3, the Kd with R &D hRGMc-His [1] was found to be 0.71 nM; with hRGMa-His [2], 0.47 nM; with Rat RGMa-His (rat) [3], 0.31 nM; with hRGMa-His [4], 0.47 nM; with R &D hRGMc-His [5] it was 0.69 nM; with Rat RGMa-His (rat) [6], 0.31 nM. The koff came to 0.0107 s⁻¹ with R &D hRGMc-His [1], 0.0004 s⁻¹ with hRGMa-His [2] and 0.00021 s⁻¹ with Rat RGMa-His (rat) [6]. For the same molecule, the kon turned out to be 1.55e+07 M⁻¹ s⁻¹ in the assay with R &D hRGMc-His [1], 860000 M⁻¹ s⁻¹ with hRGMa-His [2] and 680000 M⁻¹ s⁻¹ with Rat RGMa-His (rat) [6].

B4: h5F9.AM11 (antibody, V domains shown)
VH: EVQLVESGGGLVQPGGSLRLSCAASGFTFSNYGMNWVRQAPGKGLEWVSMIYYDSSEKHYADSVKGRFTISRDNSKNTLYLQMNSLRAEDTAVYYCAKGTTPDYWGQGTMVTVSS
VL: DVVLTQSPLSLPVTLGQPASISCRSSQSLEDSDGGTFLEWFQQRPGQSPRLLIYDVSSRFSGVPDRFSGSGSGTDFTLKISRVEAEDVGVYYCFQATHDPLSFGQGTKLEIK
notes: also called RGMA-h5F9AM; 11; RGMA-h5F9pJP302/pJP 303 hIgG1/K mut
As for B4, the Kd in the assay with R &D hRGMc-His [1] turned out to be 0.285 nM; with hRGMa-His [2] it was 0.11 nM; with Rat RGMa-His (rat) [3] it was 0.074 nM; with hRGMa-His [4], 0.11 nM; with R &D hRGMc-His [5], 0.25 nM; in the assay with Rat RGMa-His (rat) [6], 0.074 nM. Also, the figures for the koff in the assay with R &D hRGMc-His [1], with hRGMa-His [2] and with Rat RGMa-His (rat) [6] were 0.0014 s⁻¹, 9.9e-05 s⁻¹ and 5.2e-05 s⁻¹, respectively. Further, the kon in the assay with R &D hRGMc-His [1] came to 5.05e+06 M⁻¹ s⁻¹; with hRGMa-His [2] it was 930000 M⁻¹ s⁻¹; in the assay with Rat RGMa-His (rat) [6] it was 700000 M⁻¹ s⁻¹.

B5: h5F9.AM8 (antibody, V domains shown)
VH: EVQLVESGGGLVQPGGSLRLSCAASGFTFSNYGMNWIRQAPGKGLEWIGMIYYDSSEKHYADSVKGRFTISRDNSKNTLYLQMNSLRAEDTAVYYCAKGTTPDYWGQGTMVTVSS
VL: DVVLTQSPLSLPVTLGQPASISCRSSQSLEESDGYTFLHWFQQRPGQSPRLLIYEVSTRFSGVPDRFSGSGSGTDFTLKISRVEAEDVGVYYCFQATHDPLTFGQGTKLEIK
notes: also called RGMA-h5F9AM.8; RGMA-h5F9pJP297/pJP 298 hIgG1/K mut
As to B5, the Kd with R &D hRGMc-His [1] was 0.105 nM; with hRGMa-His [2], 0.031 nM; in the assay with Rat RGMa-His (rat) [3], < 0.0015 nM; in the assay with hRGMa-His [4], 0.031 nM; with R &D hRGMc-His [5], 0.08 nM; with Rat RGMa-His (rat) [6], < 0.0015 nM. Moreover, the values for the koff with R &D hRGMc-His [1], with hRGMa-His [2] and with Rat RGMa-His (rat) [6] were 0.00039 s⁻¹, 2.7e-05 s⁻¹ and < 1e-06 s⁻¹, respectively. For the same molecule, the kon with R &D hRGMc-His [1] amounted to 3.95e+06 M⁻¹ s⁻¹; in the assay with hRGMa-His [2], 870000 M⁻¹ s⁻¹; with Rat RGMa-His (rat) [6], 660000 M⁻¹ s⁻¹.

The values are drawn from patent publication EP4817631A2 (AbbVie Deutschland GmbH & Co. KG, dated 2026).
